These sequences were tested on Escherichia coli TOP10 (assay: shrunken log2 fold change of peptide-encoding DNA abundance (4.5 h post-induction vs induction); higher = less antimicrobial activity (less host growth inhibition)). Conditions: time post-induction: 4.5 h; library: site-saturation at positions 5, 18, 19, 20.
RRIRDRPPRLPRPRPRPVMKPRP was tested, and the “shrunken log2 fold change” value was -0.0716. RRIRKRPPRLPRPRPRPTDFPRP was tested, and the “shrunken log2 fold change” value was 0.118. RRIRYRPPRLPRPRPRPDPIPRP was tested, and the “shrunken log2 fold change” value was -0.168. RRIRLRPPRLPRPRPRPNRNPRP was tested, and the “shrunken log2 fold change” value was -0.884. In the case of RRIRKRPPRLPRPRPRPQLQPRP, the “shrunken log2 fold change” value is reported as 0.199. In the case of RRIRRRPPRLPRPRPRPRVQPRP, the “shrunken log2 fold change” value is reported as 0.445. With RRIRSRPPRLPRPRPRPGPWPRP the “shrunken log2 fold change” value was -0.0683. In the case of RRIRLRPPRLPRPRPRPPVPPRP, the “shrunken log2 fold change” value is reported as 0.374. With RRIRNRPPRLPRPRPRPQYMPRP the “shrunken log2 fold change” value was -1.16. RRIRSRPPRLPRPRPRPDCCPRP was tested, and the “shrunken log2 fold change” value was 0.227. RRIRTRPPRLPRPRPRPWFHPRP was tested, and the “shrunken log2 fold change” value was -0.362. RRIRLRPPRLPRPRPRPAEAPRP was tested, and the “shrunken log2 fold change” value was 0.0653. With RRIRKRPPRLPRPRPRPDYYPRP the “shrunken log2 fold change” value was 0.0521. In the case of RRIRKRPPRLPRPRPRPEALPRP, the “shrunken log2 fold change” value is reported as 1.67. With RRIRARPPRLPRPRPRPEQDPRP the “shrunken log2 fold change” value was 0.805. For RRIRSRPPRLPRPRPRPKLLPRP, the “shrunken log2 fold change” value was 0.325. In the case of RRIRMRPPRLPRPRPRPATDPRP, the “shrunken log2 fold change” value is reported as 0.843. With RRIRWRPPRLPRPRPRPMCTPRP the “shrunken log2 fold change” value was 0.356. With RRIRERPPRLPRPRPRPIHRPRP the “shrunken log2 fold change” value was 0.0155. In the case of RRIRERPPRLPRPRPRPTYAPRP, the “shrunken log2 fold change” value is reported as -0.0017. In the case of RRIRRRPPRLPRPRPRPYMHPRP, the “shrunken log2 fold change” value is reported as -0.451. For RRIRDRPPRLPRPRPRPMGVPRP, the “shrunken log2 fold change” value was 0.0778. For RRIRVRPPRLPRPRPRPQVQPRP, the “shrunken log2 fold change” value was -0.208. With RRIRTRPPRLPRPRPRPVDEPRP the “shrunken log2 fold change” value was -0.146. With RRIRFRPPRLPRPRPRPAVNPRP the “shrunken log2 fold change” value was -0.106. RRIRARPPRLPRPRPRPNIGPRP was tested, and the “shrunken log2 fold change” value was -0.0734. RRIRVRPPRLPRPRPRPCYEPRP was tested, and the “shrunken log2 fold change” value was -0.246. In the case of RRIRDRPPRLPRPRPRPNYYPRP, the “shrunken log2 fold change” value is reported as -0.305. With RRIRNRPPRLPRPRPRPNNVPRP the “shrunken log2 fold change” value was -0.943. RRIRDRPPRLPRPRPRPTLPPRP was tested, and the “shrunken log2 fold change” value was -0.027. RRIRRRPPRLPRPRPRPNSSPRP was tested, and the “shrunken log2 fold change” value was 0.105. RRIRQRPPRLPRPRPRPVEYPRP was tested, and the “shrunken log2 fold change” value was -0.434. For RRIRLRPPRLPRPRPRPCKQPRP, the “shrunken log2 fold change” value was 0.0377. In the case of RRIRHRPPRLPRPRPRPFCVPRP, the “shrunken log2 fold change” value is reported as -0.312. In the case of RRIRSRPPRLPRPRPRPPRQPRP, the “shrunken log2 fold change” value is reported as 0.389. For RRIRWRPPRLPRPRPRPHNPPRP, the “shrunken log2 fold change” value was -0.115. In the case of RRIRPRPPRLPRPRPRPDKWPRP, the “shrunken log2 fold change” value is reported as -0.0254. With RRIRYRPPRLPRPRPRPMYLPRP the “shrunken log2 fold change” value was -0.0959. For RRIRIRPPRLPRPRPRPFKVPRP, the “shrunken log2 fold change” value was -0.0829. In the case of RRIRIRPPRLPRPRPRPYAYPRP, the “shrunken log2 fold change” value is reported as -0.0284. In the case of RRIRFRPPRLPRPRPRPKEFPRP, the “shrunken log2 fold change” value is reported as -0.0812. RRIRPRPPRLPRPRPRPPNHPRP was tested, and the “shrunken log2 fold change” value was 0.0555. In the case of RRIRRRPPRLPRPRPRPFDLPRP, the “shrunken log2 fold change” value is reported as 0.0765. For RRIRPRPPRLPRPRPRPTCVPRP, the “shrunken log2 fold change” value was -0.136. With RRIRMRPPRLPRPRPRPRAEPRP the “shrunken log2 fold change” value was 1.73. With RRIRMRPPRLPRPRPRPWLHPRP the “shrunken log2 fold change” value was -0.493. RRIRQRPPRLPRPRPRPCEAPRP was tested, and the “shrunken log2 fold change” value was 0.00535. With RRIRMRPPRLPRPRPRPDETPRP the “shrunken log2 fold change” value was 0.103. With RRIRIRPPRLPRPRPRPHCNPRP the “shrunken log2 fold change” value was -0.784. RRIRGRPPRLPRPRPRPWSNPRP was tested, and the “shrunken log2 fold change” value was -0.116.

Source: the supplement of paper PMC9112550, “Optimization of the antimicrobial peptide Bac7 by deep mutational scanning” (BMC Biology, 2022)
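Also: peptides expressed intracellularly from a pBAD plasmid library in pooled LB shake-flask culture, induced with 0.3% L-arabinose, DNA abundance read by NGS, three biological replicates, DESeq2 with apeglm shrinkage.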
